# According to patent US20220306729A1 (published 2022):
# Tests used:
# [1] = target: WNV EDIII, polyhistidine-AviTag (West Nile virus); test: ELISA on EDIII (Table A)
# [2] = target: T1, DENV1 EDIII, polyhistidine-AviTag, made in HEK-293-6E cells (Dengue virus 1 (NC_001477)); test: ELISA on EDIII (Table A)
# T1 construct: also called EDIII of DENV1
# [3] = target: T2, DENV3 EDIII, polyhistidine-AviTag (Dengue virus 3, UniProt Q6YMS4 575-672); test: cross-reactivity ELISA on EDIII proteins
# T2 construct: domain: EDIII
# [4] = target: WNV EDIII, polyhistidine-AviTag (West Nile virus); test: cross-reactivity ELISA on EDIII proteins
# [5] = target: T3, DENV4 EDIII, polyhistidine-AviTag (Dengue virus 4, UniProt P09866 576-673); test: cross-reactivity ELISA on EDIII proteins
# T3 construct: domain: EDIII
# [6] = target: DENV1 E protein (strain PUO-359) on reporter viral particles or infectious virus (Dengue virus 1, strain PUO-359); test: cell-based or functional assay
# [7] = target: ZIKV E protein (African strain MR766) on reporter viral particles (Zika virus, strain MR766, UniProt Q32ZE1 291-790); test: cell-based or functional assay
# Chain of ZIKV E protein (African strain MR766) on reporter viral particles (Q32ZE1 291-790 limits assumed): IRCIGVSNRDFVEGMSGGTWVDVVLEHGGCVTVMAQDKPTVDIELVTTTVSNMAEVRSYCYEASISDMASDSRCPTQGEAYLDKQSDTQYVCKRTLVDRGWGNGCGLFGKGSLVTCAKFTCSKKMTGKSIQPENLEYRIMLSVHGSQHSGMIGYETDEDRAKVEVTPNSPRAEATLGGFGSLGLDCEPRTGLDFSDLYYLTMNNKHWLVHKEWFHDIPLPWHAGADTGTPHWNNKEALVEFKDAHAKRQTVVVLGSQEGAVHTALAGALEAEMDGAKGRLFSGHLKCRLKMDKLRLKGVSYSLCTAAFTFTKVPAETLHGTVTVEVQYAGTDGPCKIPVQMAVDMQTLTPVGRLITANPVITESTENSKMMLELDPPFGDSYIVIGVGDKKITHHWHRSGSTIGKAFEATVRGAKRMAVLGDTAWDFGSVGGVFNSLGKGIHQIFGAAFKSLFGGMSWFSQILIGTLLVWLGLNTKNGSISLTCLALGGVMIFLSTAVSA
# [8] = target: ZIKV E protein on infectious virus, 2015 Puerto Rican PRVABC59 strain (Zika virus, strain PRVABC59); test: cell-based or functional assay
# [9] = target: T4, ZIKV envelope domain III ([..]), polyhistidine-AviTag, made in HEK-293-6E cells (Zika virus (KJ776791)); test: ELISA on ZIKV EDIII (Table A)
# T4 construct: also called ZEDIII; ZIKV EDIII
# T1 sequence (P17763 577-674, tags left off): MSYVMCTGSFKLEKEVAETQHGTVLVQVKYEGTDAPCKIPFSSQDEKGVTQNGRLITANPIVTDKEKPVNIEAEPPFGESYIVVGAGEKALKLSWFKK
Binder,binding result [3],binding result [4],binding result [5],further results
"Z054 (BRA138_94) (antibody, V domains shown) VH: QLQLQESGPRLVKPSETLFLTCTVSGDSISSSSYFWGWIRQPPGKGLEWIGSISYSGSTYYNPSLKSRVTISVDTSKNQFSLKLSSVTAADTVVYYCAKHLYSSSWNIGSSFDSWGPGTLVTVSS VL: EIVLTQSPATLSLSPGERATLSCRASQSVSIYLAWYQQKPGQAPRLLIYDASSRATGIPARFSGSGSGTDFTLTISSLEPEDFAVYYCQQRSNWPVYTFGQGTKVEIK",,,,binding result [1]: no binding; binding result [2]: no binding
"Z031 (BRA112_46) (antibody, V domains shown) VH: EVQLLESGGGLVQPGGSLRLSCVASGFTFGSYGMAWVRQAPGKGLEWISSISSIDPSTYYADSVKGRFTVSRDNSENTLYLHMSSLKVEDTAVYFCAKDRLNGGFGELFASWGQGTLVTVSS VL: DIQMTQSPSTLSASVGDSVTITCRASQSISSWLAWYQQKPGKAPKFLIHKASSLESGIPSRFSGSGSGTEFTLTINNLQPDDFATYYCQHYHSYPWTFGQGTKVEIK",no binding (tested: 10 µg/ml),no binding (tested: 10 µg/ml),no binding (tested: 10 µg/ml),
"Z038 (BRA12_2) (antibody, V domains shown, also called BRA12_02) VH: EVQLLESGGGLVQPGGSLRLSCEASGFTFSNYAMNWVRQAPGKGLEWVSTLGATDNSGDSTYYVESAKGRFTISRDNSKNTLYLQMNSLRVEDTAVYFCAKDRTGNIGAGTGYFDKWGQGTLVTVSS VL: DIQMTQSPSTLSASVGDRVTITCRASHRISGWLAWYQQKPGKAPKLLIYQASGLESGVPSRFSGSGYGTEFTLTISSLQADDFATYYCQQYNNYPWTFGQGTKVEIK",no binding (tested: 10 µg/ml),no binding (tested: 10 µg/ml),no binding (tested: 10 µg/ml),
"Z021 (MEX84_p4-23) (antibody, V domains shown) VH: QVQLQESGPGLVKPSETLSLTCTVSGGSIDTYYWSWIRQTPGKGLEWIGCFYYSVDNHFNPSLESRVTISVDTSKNQFSLKMTSMTASDTAVYYCARNQPGGRAFDYWGPGTLVTVSS VL: EIVLTQSPATLSLSPGQRATLSCRASQSVSNYFAWYQQKPGQAPRLLIYDTSKRATGTPARFSGSGSGTDFTLTISSLEPEDFAVYYCQERNNWPLTWTFGLGTKVEIK",,,,"IC50, DENV1 neutralization (flow cytometry) [6]: 10.1 ng/mL; IC50, ZIKV RVPs [7]: 0.7 ng/mL; IC50, plaque reduction neutralization assay (PRNT) [8]: 4 ng/mL"
"Z040 (BRA12_81) (antibody, V domains shown) VH: EVQLLESGGGLVQPGGSLRLSCAASGFTFSTYAMSWVRQAPGKGLEWVSAISGSGRSTYYADSVKGRFTISRDNSKNTLYLQMNSLRGEDTAVYYCAKSSGGHNWNYVDYYYGMDVWGQGTTVTVSS VL: DIQLTQSPSFLSASVGDRVTITCRASQGISSYLAWYQQKPGKAPKLLIYAASTLQSGVPSRFSGSGSGTEFTLTISSLQPEDFATYYCQQLNSYPVTFGPGTKVDIK",,,,binding result [1]: no binding; binding result [2]: no binding
"Z032 (BRA112_24) (antibody, V domains shown) VH: EVQLLESGGRLVQPGGSLTLSCAASGFPFSTYAMSWLRQAPGKGLEWVSGITGDSGSTYYAASVKGRFTISRDNSKNTLYLQMNSLTADDTAVYYCAKDRLHSGLGELFSYWGQGTLVTVSS VL: DIQMTQSPSTLSASVGDRVNITCRASQSINQWLAWYQQKPGKAPKFLMYKASTLETGVPSRFSGSGSGTEFTLTISSLQPDDFATYYCQHYFSYPWTFGQGTKVEIK",,,,EC50 [9]: 19.5 ng/mL
"Z035 (BRA112_71) (antibody, V domains shown) VH: EVQLLESGGGLIQPGGSLRLSCAASGFTFSSYAMSWVRQAPGKGLEWVSGISGSGGASDNGASRYYADSVKGRFSISRDNSKNTVYLQMNSLRAEDTAVYYCAKDRLSGGFGELFQKWGQGTLVTVSS VL: DIQMTQSPSTLAASVGDRVTITCRASQNINSWLAWYQQKPGKAPKFLIYKASTLESGAPSRFSGSGSGTEFTLTISSLQPDDFATYYCQHYYSYPYTFGQGTKVEIK",no binding (tested: 10 µg/ml),no binding (tested: 10 µg/ml),no binding (tested: 10 µg/ml),
"Z044 (BRA138_46) (antibody, V domains shown) VH: QVQLVQSGAEVKKPGASVKVSCKASGYTFTSTYIHWVRQAPGQGLEWMGIINPSSSNTNYAQKFQGRVTMTRDTSTSTVYMELSSLRSEDTAVYYCARDFGGYSSSSVSDAFDIWGQGTMVTVSS VL: QSALTQPASVSGSPGQSITISCTGTSSDVGSFNLVSWYQQHPGKAPKLIIYEVSKRPSGVSNRFSGSKSGNTASLTISGLQAEDEVHYYCCSYAGSSRFVFGTGTKVTVL",,,,binding result [1]: no binding; binding result [2]: no binding
"Z006 (MEX105_42) (antibody, V domains shown) VH: EVQLLESGGGLVQPGGSLRLSCAASGFTFKNYAMAWVRQAPGKGLEWVSLLYNSEESTYYADSVKGRFTISRDNSKNTLFLQMNRLRVEDTAVYFCVRDRSNGWSSINLWGRGTLVTVSS VL: DIQMTQSPSTLSASVGDRVTMTCRASQTISGWLAWYQQKPGKAPKLLIYQASRLESGIPSRFSGSGSGTEFTLTISSLQPDDVATYYCQQYSTFWTFGLGTKVEIK",no binding (tested: 10 µg/ml),no binding (tested: 10 µg/ml),no binding (tested: 10 µg/ml),
"Z010 (MEX105_88) (antibody, V domains shown) VH: EVQLLESGGGLVQPGGSLRLSCAASGFTFSNYAMAWVRQAPGKGLEWVSLIYSGDDSTYYADFVKGRFTISRHNSKNTLSLQMNSLRAEDTAIYYCVKDRGTGWSSIVHWGQGTLVTVSS VL: DIQMTQSPSTLSASVGDRVTITCRASQTISNWLAWYQQKPGKAPKLLIYQASSLESGVPSRFSGSGSGTEFTLTISSLQPDDFATYYCQQYSTYWTFGQGTKVEIK",no binding (tested: 10 µg/ml),no binding (tested: 10 µg/ml),no binding (tested: 10 µg/ml),
"Z004 (MEX18_89) (antibody, V domains shown, also called biotin-Z004 (biotinylated form)) VH: EVQLLESGGGLVQPGGSLRLTCATSGFTFRDYAMSWVRQAPGKGLEWVSSYSGIDDSTYYADSVKGRFTISRDNSKSTLSLHMNSLRAEDSALYFCAKDRGPRGVGELFDSWGQGTLVTVSS VL: DIQMTQSPSTLSASVGDRVTITCRASQSISKWLAWYQQKPGKAPKLLIYTTSTLKSGVPSRFSGSGSGTEFTLTISSLQPDDFATYYCQHFYSVPWTFGQGTKVEIK",no binding (tested: 10 µg/ml),no binding (tested: 10 µg/ml),no binding (tested: 10 µg/ml),"IC50, DENV1 luciferase RVPs [6]: 1.6 ng/mL; IC50, flow cytometry using authentic DENV1 [6]: 16.4 ng/mL; IC50, plaque reduction neutralization test (PRNT) [8]: 2.2 ng/mL"
"Z001 (MEX18_21) (antibody, V domains shown) VH: EVQLLESGGGLVQPGGSRRLSCATSGFSFDTYAMSWLRQAPGKGLEWVSSFSGLDDSTYYADSVKGRFTISRDNSKNTLYLQMNSLRAEDTAIYYCAKDRGPRGIGELFDFWGQGTLVTVSS VL: DIQMTQSPSTLSASVGDRVTITCRASQSISRWLAWYQQKPGKAPKLLIYKTSTLKSEVPSRFSGSGSGTEFTLTISSLQPDDFATYYCQHFHSVPWTFGQGTKVEIK",no binding (tested: 10 µg/ml),no binding (tested: 10 µg/ml),no binding (tested: 10 µg/ml),
"Z028 (MEX84_p4-53) (antibody, V domains shown) VH: EVQLLESGGGLVQPGGSLRLSCAASGFTFSAYAMSWVRQAPGKGLEWVSSINGHSDSTYFADSVKGRFTISRDNSKNTLYLQMNSLRAEDTALYYCAKDRLREGIGELFHSWGQGTLVTVSS VL: DIQMTQSPSTLSASIGDRVTITCRASQSITPWLAWYQQKPGKAPKFLIYQTSILESGVPSRFSGSGSGTEFTLTISSLQPDDFATYYCQHYHSYPWTFGQGTKVEIK",no binding (tested: 10 µg/ml),no binding (tested: 10 µg/ml),no binding (tested: 10 µg/ml),
